From article PMC6872938

Assays:
[1] = biological target: His6-tagged HzTransib transposase (Transib transposase from Helicoverpa zea), residues 17-507 (Helicoverpa zea); experiment: SEC-MALS
[2] = biological target: MBP-tagged HzTransib transposase (Transib transposase from Helicoverpa zea), residues 17-507 (Helicoverpa zea); experiment: SEC-MALS

| stoichiometry N [1] | stoichiometry N [2] | Substance |
| --- | --- | --- |
| 2 |  | His6-tagged HzTransib transposase (Transib transposase from Helicoverpa zea), residues 17-507 (enzyme) |
|  | 2 | MBP-tagged HzTransib transposase (Transib transposase from Helicoverpa zea), residues 17-507 (enzyme) |
